Article PMC9733933

Biological target: SARS-CoV-2 nsp7-11 polyprotein (SARS-CoV-2)
Assay: SEC-MALS

Substance: SARS-CoV-2 nsp7-11 polyprotein (domain or fragment)
- stoichiometry N: 2
